Reference: paper PMC7367873, “Dissecting the sequence determinants for dephosphorylation by the catalytic subunits of phosphatases PP1 and PP2A” (Nature Communications, 2020)

Biological target: T1, PP1c (Homo sapiens, UniProt P62136)
T1 construct: His tag with TEV site (N, cleaved yes); intein (pTXB1) (C, cleaved yes); made in house; host or cells: E. coli BL21Star(DE3)pRARE
Assay: Phosphoproteome dephosphorylation assay of HeLa Kyoto lysate with recombinant PP1c (TMT phosphoproteomics)
Type: biochemical
Details: 1 µM recombinant phosphatase, 1 h at 30 °C, 20 nM Calyculin A, three replicates
Procedure: For phosphoproteomics, HeLa Kyoto cells were incubated with 20 nM Calyculin A (CST, #9902) for 10–15 min. This time point was determined empirically to yield maximal phosphatase inhibition without cells showing pleiotropic effects. Subsequently, cells were placed on ice and washed twice with cold PBS and scraped in lysis buffer (100 mM NaCl, 10 mM Tris, 0.1% IGEPAL, 1 mM EDTA, 1 mM EGTA, 20 nM Calyculin A, 1x cOmplete Mini protease inhibitor cocktail (Sigma), 1 mM DTT, 1 mM MnCl2, pH 7.5). After 10 pushes through an injection needle (21 G, BD), lysate was cleared from the insoluble fraction by centrifugation (10 min, 10^4 rcf, 4 °C). Protein concentration was then determined by a Bradford Assay and equal amounts of 1 mg total protein were incubated with recombinant PP1c/PP2Ac or buffer at a final phosphatase concentration of 1 µM in a total volume of 200 µL for 1 h at 30 °C. Lysates were then immediately placed on ice. PhosStop […] (Roche) was added and proteins were denatured by adding urea to a final concentration of 8 M taking into account the volume increase. Samples were then snap-frozen in liquid nitrogen for storage and subsequent MS analysis.
Treated lysates were reduced (10 mM DTT, 30 °C, 30 min) and alkylated (50 mM chloroacetamide, room temperature, 30 min, in the dark), and then diluted to 1.3 M urea using 40 mM Tris-HCl (pH 7.6). […]

T1 sequence (P62136 whole entry): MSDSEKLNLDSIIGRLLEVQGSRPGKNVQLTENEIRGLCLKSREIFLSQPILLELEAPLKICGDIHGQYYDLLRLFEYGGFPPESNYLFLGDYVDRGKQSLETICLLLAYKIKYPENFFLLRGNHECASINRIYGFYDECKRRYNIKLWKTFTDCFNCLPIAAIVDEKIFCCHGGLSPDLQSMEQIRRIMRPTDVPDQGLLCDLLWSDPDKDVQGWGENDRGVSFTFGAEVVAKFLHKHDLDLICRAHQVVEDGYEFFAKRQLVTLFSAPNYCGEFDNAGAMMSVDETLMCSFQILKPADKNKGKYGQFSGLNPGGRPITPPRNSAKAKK

- number of class I p-sites dephosphorylated by PP1: 1967 p-sites
Substance: PP1c: recombinant catalytic subunit of PP1
